Measurements: publication doi:10.1101/2025.03.12.642038, “Structural, biophysical and biological analysis and characterisation of IRF4 DNA-binding domain mutations associated with multiple myeloma”

T1: IRF4 DBD S114R (Homo sapiens, UniProt Q15306 20-132, S114R)
T1 sequence: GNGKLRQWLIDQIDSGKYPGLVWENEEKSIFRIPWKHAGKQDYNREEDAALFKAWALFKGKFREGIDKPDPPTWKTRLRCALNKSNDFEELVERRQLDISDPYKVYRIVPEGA

T2: IRF4 DBD K59R (Homo sapiens, UniProt Q15306 20-132, K59R)
T2 sequence: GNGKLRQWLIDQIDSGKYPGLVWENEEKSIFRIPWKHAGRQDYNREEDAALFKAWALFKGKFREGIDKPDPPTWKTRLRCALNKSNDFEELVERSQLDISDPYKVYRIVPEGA

T3: IRF4 DBD D106Y (Homo sapiens, UniProt Q15306 20-132, D106Y)
T3 sequence: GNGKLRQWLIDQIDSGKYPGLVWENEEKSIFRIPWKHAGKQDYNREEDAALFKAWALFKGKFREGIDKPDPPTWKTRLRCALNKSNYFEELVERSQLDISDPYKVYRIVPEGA

T4: IRF4 DBD T95R (Homo sapiens, UniProt Q15306 20-132, T95R)
T4 sequence: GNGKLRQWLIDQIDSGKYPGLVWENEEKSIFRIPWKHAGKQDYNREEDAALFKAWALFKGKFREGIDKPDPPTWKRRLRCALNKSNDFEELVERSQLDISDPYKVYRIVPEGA

T5: IRF4 DBD K123R (Homo sapiens, UniProt Q15306 20-132, K123R)
T5 sequence: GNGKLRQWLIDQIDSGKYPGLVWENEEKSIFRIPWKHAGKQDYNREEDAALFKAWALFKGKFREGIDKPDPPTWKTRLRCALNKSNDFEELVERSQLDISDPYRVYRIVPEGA

T6: IRF4 DBD C99A (Homo sapiens, UniProt Q15306 20-132, C99A)
T6 sequence: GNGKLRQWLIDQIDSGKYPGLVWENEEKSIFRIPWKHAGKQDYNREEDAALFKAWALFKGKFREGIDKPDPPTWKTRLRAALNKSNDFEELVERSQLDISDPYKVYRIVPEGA

T7: IRF4 DBD S114N (Homo sapiens, UniProt Q15306 20-132, S114N)
T7 sequence: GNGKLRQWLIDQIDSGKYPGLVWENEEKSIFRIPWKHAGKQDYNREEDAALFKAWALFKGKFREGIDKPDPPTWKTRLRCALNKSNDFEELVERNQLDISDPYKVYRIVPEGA

T8: IRF4 DBD L70V (Homo sapiens, UniProt Q15306 20-132, L70V)
T8 sequence: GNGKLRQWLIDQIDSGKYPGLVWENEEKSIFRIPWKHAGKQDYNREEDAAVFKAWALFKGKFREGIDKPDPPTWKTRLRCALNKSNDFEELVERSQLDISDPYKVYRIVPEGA

T9: IRF4 DBD C99S (Homo sapiens, UniProt Q15306 20-132, C99S)
T9 sequence: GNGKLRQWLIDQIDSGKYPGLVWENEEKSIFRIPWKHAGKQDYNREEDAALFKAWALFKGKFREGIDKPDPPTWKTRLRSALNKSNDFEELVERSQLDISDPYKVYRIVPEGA


Experiments:
IRF4 DBD S114R = target: T1, IRF4 DBD S114R; experiment: FP; FP: PBS + 0.05% Tween20, 5 nM DNA, 1 h, room temperature; SPR: Biacore S200, SA chip, protein 0.1-4500 nM, running buffer not given in material; errors are SD; conditions: protein: recombinant; tags: N-terminal His8-linker-His8-TEV, cleaved; label: 3' fluorescein (FAM); hairpin, TTTT loop
IRF4 DBD K59R [1] = target: T2, IRF4 DBD K59R; experiment: as above; conditions: protein: recombinant; tags: N-terminal His8-linker-His8-TEV, cleaved; label: 3' fluorescein (FAM); hairpin, TTTT loop
IRF4 DBD D106Y = target: T3, IRF4 DBD D106Y; experiment: as above; conditions: protein: recombinant; tags: N-terminal His8-linker-His8-TEV, cleaved; label: 3' fluorescein (FAM); hairpin, TTTT loop
IRF4 DBD T95R = target: T4, IRF4 DBD T95R; experiment: as above; conditions: protein: recombinant; tags: N-terminal His8-linker-His8-TEV, cleaved; label: 3' fluorescein (FAM); hairpin, TTTT loop
IRF4 DBD K123R = target: T5, IRF4 DBD K123R; experiment: as above; conditions: protein: recombinant; tags: N-terminal His8-linker-His8-TEV, cleaved; label: 3' fluorescein (FAM); hairpin, TTTT loop
IRF4 DBD K59R [2] = target: T2, IRF4 DBD K59R; experiment: SPR steady state; FP: PBS + 0.05% Tween20, 5 nM DNA, 1 h, room temperature; SPR: Biacore S200, SA chip, protein 0.1-4500 nM, running buffer not given in material; errors are SD; conditions: protein: recombinant; tags: N-terminal His8-linker-His8-TEV, cleaved; label: 3' biotin; hairpin, TTTT loop
IRF4 DBD C99A = target: T6, IRF4 DBD C99A; experiment: as above; conditions: protein: recombinant; tags: N-terminal His8-linker-His8-TEV, cleaved; label: 3' biotin; hairpin, TTTT loop
IRF4 DBD S114N = target: T7, IRF4 DBD S114N; experiment: as above; conditions: protein: recombinant; tags: N-terminal His8-linker-His8-TEV, cleaved; label: 3' biotin; hairpin, TTTT loop
IRF4 DBD L70V = target: T8, IRF4 DBD L70V; experiment: as above; conditions: protein: recombinant; tags: N-terminal His8-linker-His8-TEV, cleaved; label: 3' biotin; hairpin, TTTT loop
IRF4 DBD C99S = target: T9, IRF4 DBD C99S; experiment: as above; conditions: protein: recombinant; label: 3' biotin; hairpin, TTTT loop

| Binder | Kd (IRF4 DBD S114R) | Kd (IRF4 DBD K59R [1]) | Kd (IRF4 DBD D106Y) | Kd (IRF4 DBD T95R) | Kd (IRF4 DBD K123R) | Kd (IRF4 DBD K59R [2]) | Kd (IRF4 DBD C99A) | Kd (IRF4 DBD S114N) | Kd (IRF4 DBD L70V) | Kd (IRF4 DBD C99S) |
| --- | --- | --- | --- | --- | --- | --- | --- | --- | --- | --- |
| CTTGGTTTCACTTCCTGCGTTTTCGCAGGAAGTGAAACCAAG (structured_DNA) [IRE hairpin (FAM)] | 332 ± 162 nM | 350 ± 275 nM | 219 ± 261 nM | 151 ± 72 nM | 143 ± 34 nM |  |  |  |  |  |
| CTTGGTTTCACTTCCTGCGTTTTCGCAGGAAGTGAAACCAAG (structured_DNA) [IRE hairpin (biotin)] |  |  |  |  |  | 275 ± 93 nM | 173 ± 60 nM | 291 ± 79 nM | 167 ± 82 nM | 338 ± 173 nM |
